Assay results taken from patent US20250026861A1 (INVENRA, published 2025).

T1: CD3
T1 chain: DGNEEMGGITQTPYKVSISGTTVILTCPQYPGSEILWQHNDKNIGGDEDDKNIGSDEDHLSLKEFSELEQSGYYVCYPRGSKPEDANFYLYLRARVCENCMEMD


How the values were obtained:
[1] = molecular target: T2, CTLA4 (UniProt P16410 36-161, limits assumed); experiment: Octet biolayer interferometry; antigen immobilized, B-Body as analyte
T2 construct: Immobilized antigen in the Octet assays
Excerpt: In each instance, the antigen is immobilized and the B-Body is the analyte.

[2] = molecular target: T1, CD3; experiment: BLI (Octet), two-fold serial dilution (200-12.5 nM) of the construct

T2 sequence (P16410 36-161 limits assumed): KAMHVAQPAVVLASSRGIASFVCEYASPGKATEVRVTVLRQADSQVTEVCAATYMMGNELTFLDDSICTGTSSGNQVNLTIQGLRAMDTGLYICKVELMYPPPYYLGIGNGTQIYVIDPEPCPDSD

Binder | binding result [1] | Kd [2] [nM] | koff [2] [s⁻¹] | kon [2] [M⁻¹ s⁻¹]
bivalent bispecific B-Body “BC1” (bispecific antibody) chain 1: not shown chain 2: EVQLVESGGGLVQPGGSLRLSCAASGFTFSDYDIHWVRQAPGKGLEWVGDITPYDGTTNYADSVKGRFTISADTSKNTAYLQMNSLRAEDTAVYYCARLVGEIATGFDYWGQGTLVTVSSASPREPQVYTDPPSRDELTKNQVSLTCLVKGFYPSDIAVEWESNGQPENNYKTTPPVLDSDGSFFLYSKLTVDKSRWQQGNVFSCSVMHEALHNHYTQKSLSLSGEC chain 3: not shown chain 4: QVQLVESGGGVVQPGRSLRLDCKASGITFSNSGMHWVRQAPGKGLEWVAVIWYDGSKRYYADSVKGRFTISRDNSKNTLFLQMNSLRAEDTAVYYCATNDDYWGQGTLVTVSSASTKGPSVFPLAPSSKSTSGGTAALGCLVKDYFPEPVTVSWNSGALTSGVHTFPAVLQSSGLYSLSSVVTVPSSSLGTQTYICNVNHKPSNTKVDKKVEPPKSC | no binding |  |  | 
non-mutagenized SP34-89 monovalent B-Body (bispecific antibody, V domains shown, VL and VH cloned into one arm of a 1×1 BC1 B-Body; also called SP34-89 VL-WT/SP34-89 VH-WT) VH: EVQLVESGGGLVQPGGSLRLSCAASGFTFNTYAMNWVRQAPGKGLEWVARIRSKYNNYATYYADSVKGRFSISRDDSKNTAYLQMNSLRAEDTAVYYCVRHGNFGNSYVSWFAYWGQGTLVTV VL: QAVVTQEPSLTVSPGGTVTLTCRSSTGAVTTSNYANWVQQKPGQAPRGLIGGTNKRAPWTPARFSGSLLGGKAALTITGAQAEDEADYYCALWYSNLWVFGGGTKLTVL |  | 23 | 0.0071 | 300000
